In patent publication US7910549 one finds cell attachment to purified MN/CA IX+ (fold dilution of ascites fluid) data, which are given here for one substance.

For this assay, the target named is complete MN/CA IX protein (MN/CA IX+), from Vero cells infected with vaccinia virus carrying the complete coding region of MN/CA IX (human) (UniProt Q16790). Nature of the assay: cell-based or functional assay.

“monoclonal antibody M75 (MAb M75), secreted by hybridoma VU-M75, ATCC HB 11128”: the cell attachment to purified MN/CA IX+ (fold dilution of ascites fluid) is 1000.
